Reference: patent US20110165265A1, “TRAIL VARIANTS FOR TREATING CANCER” (FUNDACIÓ GENÒMICA (CRG), priority 2007, published 2011)
Entries after “also recorded” stand apart in the source; their conditions may differ.

T1: DcR2 (Homo sapiens, UniProt Q9UBN6)
T1 construct: soluble, recombinant DcR1-Ig (sDcR1) and DcR2-Ig (sDcR2); purchased R&D Systems
T1 sequence (Q9UBN6 56-211 limits assumed): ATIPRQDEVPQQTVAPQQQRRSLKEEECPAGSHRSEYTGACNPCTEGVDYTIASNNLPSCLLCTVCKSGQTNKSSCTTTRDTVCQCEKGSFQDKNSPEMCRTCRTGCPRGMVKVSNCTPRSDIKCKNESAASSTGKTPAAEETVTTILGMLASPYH

T2: DcR1 (Homo sapiens, UniProt O14798)
T2 construct: soluble, recombinant DcR1-Ig (sDcR1) and DcR2-Ig (sDcR2); purchased R&D Systems
T2 sequence (O14798 26-236 limits assumed): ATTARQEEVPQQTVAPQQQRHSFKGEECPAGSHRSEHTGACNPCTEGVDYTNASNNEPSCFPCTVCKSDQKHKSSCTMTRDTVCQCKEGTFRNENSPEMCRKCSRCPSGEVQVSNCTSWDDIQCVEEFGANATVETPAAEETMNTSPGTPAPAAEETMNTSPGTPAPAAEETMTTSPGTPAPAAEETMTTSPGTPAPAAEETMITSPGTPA

B1: D269HE195R: rhTRAIL (114-281) carrying mutations D269H and E195R; DR5-selective TRAIL variant (protein)
chain: MVRERGPQRVAAHITGTRGRSNTLSSPNSKNEKALGRKINSWESSRSGHSFLSNLHLRNGELVIHEKGFYYIYSQTYFRFQERIKENTKNDKQMVQYIYKYTSYPDPILLMKSARNSCWSKDAEYGLYSIYQGGIFELKENDRIFVSVTNEHLIDMHHEASFFGAFLVG
B2: wtTRAIL: wild-type soluble recombinant human TRAIL, amino acids 114-281 (SEQ ID NO: 3) (protein, listed as Homo sapiens)
chain: MVRRGRVAAHTGTRGRSNTSSNSKNKAGRKNSWSSRSGHSSNHRNGVHKGYYYSTYRKNTKNDKMVYYKYTSYDMKSARNSCWSKDAYGYSYGGKNDRVSVTNHDMDHASGAVG
modifications: TRAIL 114-281

Assays:
DcR2 [1] = target: T1, DcR2; assay: SPR receptor binding assay, immobilized DcR2-Ig; settings: 0.1-250 nM ligand
Experimental: (§1) The response data (in response units) as a function of TRAIL concentration were fitted using a four parameter equation to give an apparent pre-steady state affinity constant.
(§2) Binding experiments were performed at 37° C. using a surface plasmon resonance-based biosensor (Biacore 3000, Biacore AB, Uppsala, Sweden) as previously described^10. In short, DcR1-Ig and DcR2-Ig receptor chimeras (R&D Systems) were captured at a 35 μl/min flow rate using a protein A (Sigma) modified CM5 sensor chip (Biacore). Receptor chimeras were captured at a level of ˜500-800 response units (RU). […] Binding of ligands to the receptors was monitored in real-time. Between injections the protein A sensor surface was regenerated using a 30s pulse of 0.1 M glycine 0.5 M NaCl pH 3. Due to the very slow dissociation of the TRAIL-receptor complex, only pre-steady state binding data could be obtained. In order to obtain data that represent proper high-affinity complex formation, the response at each concentration was recorded 30 sec after the end of the injection. The response data (in response units) as a function of TRAIL concentration were fitted using a four parameter equation to give an apparent pre-steady state affinity constant.
(§3) Affinity of the ligands was assessed by measuring receptor binding in a concentration range of 0.1-250 nM.

A2780 cells [2] = assay: MTT cytotoxicity in A2780 (Example 6); type: cell-based; settings: A2780 (FIG. 8E)
DcR1 = target: T2, DcR1; assay: SPR receptor binding assay, immobilized DcR1-Ig; settings: 0.1-250 nM ligand
Experimental: as §1, §2, §3

BJAB cells = assay: Cytotoxicity in BJAB cells; type: cell-based
DcR2 [3] = target: T1, DcR2; settings: cited from earlier work
VACO-235 and VACO330 = assay: Sensitivity of colon adenoma cell lines; type: cell-based, human; settings: 96 hours
Experimental: The colon adenoma cell lines VACO-235 and VACO330 were treated with TRAIL or D269H/E195R for 96 hours. […] Sensitivity could be further enhanced using TRAIL or D269H/E195R in combination with the cdk inhibitor roscovitine.

Colo205 cells = assay: Annexin V apoptosis assay in Colo205; type: cell-based, human; settings: Colo205, 3 h
Experimental: Colo205 cells express all four TRAIL receptors, and are sensitive to TRAIL-induced apoptosis, which is mediated predominantly via DRS in these cells^10. […] Induction of cell death was measured by Annexin V assay, wherein externalization of phosphatidyl serine (PS) on the plasma membrane of apoptotic cells was detected using Annexin V-FITC (IQ Corporation, Groningen, The Netherlands). Briefly, cells were trypsinized and were then collected by centrifugation at 400 g, washed in ice-cold calcium buffer (10 mM HEPES/NaOH, pH 7.4, 140 mM NaCl, 2.5 mM CaCl2) and incubated with Annexin V-FITC for 15 min in the dark prior to acquisition on a FACSCalibur flow cytometer (Becton Dickinson).

DR4 = target: T3, DR4 (Homo sapiens, UniProt O00220); assay: SPR binding to immobilized DR4-Ig; settings: pre-steady state SPR
T3 construct: the more commonly used dimeric TRAIL-receptor-IgG Fc chimeric constructs
From the text: In other experiments dissociation was continued for periods of up to 2,000 sec, with similar results. As a consequence it is essentially impossible to obtain a dissociation rate constant and thus to calculate the affinity from the association and dissociation rate constants. We therefore chose to use the pre-steady state approach to analyse the data^10. […] With these two changes this variant has become an TRAIL variant that binds to DR5 with high selectivity and affinity.

DR5 [4] = target: T4, DR5 (Homo sapiens, UniProt O14763); assay: SPR binding to immobilized DR5-Ig
T4 construct: Effect of soluble recombinant DR5-Ig (sDR5) on apoptosis induction

A2780 cells [5] = assay: Sensitivity of ovarian carcinoma cell line A2780 (Example 4); type: cell-based, human
From the text: The ovarian carcinoma cell line A2780 expresses very low levels of DR4, and high levels of the other three membrane-bound TRAIL receptors. Sensitivity of these cells to wild type TRAIL and the DR5-specific variant was compared initially as a single agent. The sensitivity pattern is illustrated in the Table 6, with + indicating minimally sensitive, ++ moderately sensitive and +++ very sensitive.

DR5 [6] = target: T4, DR5; settings: surface plasmon resonance; read-out: binding affinity Kd for DR5; cited from earlier work
[7] = acknowledged value; cited from earlier work
Colo205 tumors = Colo205 tumors in athymic nude mice; type: in vivo; settings: 1 and 5 mg/kg IP

T3 sequence (O00220 24-239 limits assumed): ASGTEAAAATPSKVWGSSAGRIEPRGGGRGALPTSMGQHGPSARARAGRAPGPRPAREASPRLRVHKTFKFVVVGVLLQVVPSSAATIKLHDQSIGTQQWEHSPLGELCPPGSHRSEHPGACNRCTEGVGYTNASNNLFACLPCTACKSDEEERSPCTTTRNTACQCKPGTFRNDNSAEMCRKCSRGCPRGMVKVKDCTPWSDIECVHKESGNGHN

Molecule	binding toward DcR2 compared to wtTRAIL (DcR2 [1])	cytotoxic activity compared with wild-type TRAIL (A2780 cells [2])	binding towards DcR1, reduction compared to wtTRAIL (DcR1)	cell death induction (BJAB cells; BJABDR5 DEF cells)	cytotoxic potential (BJAB cells; BJABDR5 DEF+DR5 cells)	cell death induction (BJAB cells; BJABwt cells)	affinity for DcR2 (DcR2 [3]; earlier work referred to)	sensitivity of adenoma cell lines (VACO-235 and VACO330)	increase in apoptosis / cytotoxic potential compared to wtTRAIL (based on IC50) (Colo205 cells)	increase in apoptosis / cytotoxic potential compared to wtTRAIL (based on IC50) (Colo205 cells; listed as D269H/E195R)	affinity for DR4-Ig compared to wtTRAIL (DR4)	increase in association rate constant (kon) for binding to DR5 compared to wtTRAIL (DR5 [4])	affinity for DR5-Ig compared to wtTRAIL (DR5 [4]; pre-steady state SPR)	efficacy in combination with Cisplatin (A2780 cells [5])	sensitivity compared to wild type TRAIL, single agent (A2780 cells [5])	Kd (DR5 [6])	half life [7]	Kd (DcR2 [3]; surface plasmon resonance, read-out: binding affinity Kd for DcR2)	anti-tumor effect, single therapy (Colo205 tumors)
B1	reduced	significantly increased	approximately 20 fold	unable to induce significant cell death	restored	able to induce cell death	reduced	more sensitive to D269H/E195R	2.7-4.2 fold	3.3-4.2 fold	almost abolished	less than 5 fold	increased several fold	higher efficacy than wtTRAIL	increased sensitivity	–	–	–	–
B2	–	–	–	–	–	–	–	–	–	–	–	–	–	–	–	7.2 nM	approximately 30 minutes	~8 nM	neither of the two concentrations of wtTRAIL give an anti-humor effect; also recorded: do not give an anti-tumor effect
